Reference: US20040010124A1 (MacroGenics, published 2004)
Numbering of substitutions follows the chain as printed.

B1: hu3G8VH-40/hu3G8VL-1 (antibody, V domains shown)
VH: QITLKESGPTLVKPTQTLTLTCTFSGFSLSTSGVGVGWIRQPPGKALEWLAHIFWDDDKRYSPSLKSRLTISKDTSKNQVVLTMTNMDPVDTATYYCARINPAWFAYWGQGTLVTVSS
VL: DIVMTQSPDSLAVSLGERATINCKASQSVDFDGDSFMNWYQQKPGQPPKLLIYTTSNLESGVPDRFSGSGSGTDFTLTISSLQAEDVAVYYCQQSNEDPYTFGQGTKLEIK
notes: Human Cγ1/Cκ constant regions; HEK-293
B2: hu3G8VH-43/hu3G8VL-1 (antibody, V domains shown)
VH: B1 VH with F54W, S72T, W104Y
VL: B1 VL
notes: as for B1
B3: hu3G8VH-45/hu3G8VL-1 (antibody, V domains shown)
VH: B1 VH with F54W, S72T, R99Q, W104Y, A106D
VL: B1 VL
notes: as for B1
B4: hu3G8VH-44/hu3G8VL-1 (antibody, V domains shown)
VH: B1 VH with F54W, S72T, R99H, W104Y, A106D
VL: B1 VL
notes: as for B1
B5: hu3G8VH-42/hu3G8VL-1 (antibody, V domains shown)
VH: B1 VH with F54W, S72T
VL: B1 VL
notes: as for B1
B6: chimeric antibody ch3G8 (ch3G8VH/ch3G8VL) (antibody, V domains shown)
VH: QVTLKESGPGILQPSQTLSLTCSFSGFSLRTSGMGVGWIRQPSGKGLEWLAHIWWDDDKRYNPALKSRLTISKDTSSNQVFLKIASVDTADTATYYCAQINPAWFAYWGQGTLVTVSS
VL: DTVLTQSPASLAVSLGQRATISCKASQSVDFDGDSFMNWYQQKPGQPPKLLIYTTSNLESGIPARFSASGSGTDFTLNIHPVEEEDTATYYCQQSNEDPYTFGGGTKLEIK
notes: Mouse 3G8 VH (FR4 ala to ser) on human Cγ1 and mouse 3G8 VL on human Cκ; also called chimeric 3G8; ch3G8-γ1

Molecular target: T1, soluble form of human CD16A (sCD16A) (human, UniProt P08637 17-203)
T1 construct: CD16A gene truncated just prior to the transmembrane region, expressed in HEK-293; The last seven residues come from vector pCDNA3.1; also called sFcRIIIa
Assay: ELISA, sCD16A captured by mAb LNK-16
Experimental: The plate was washed and dilutions of recombinant antibodies starting at 0.5 μg/ml in PBS-T-BSA were then added and incubated for 1 hr at room temp. […] After stopping color development using dilute sulfuric acid, the plate was read at 450 nm.

T1 sequence (P08637 other isoform, or with tags, fused parts or gaps limits assumed): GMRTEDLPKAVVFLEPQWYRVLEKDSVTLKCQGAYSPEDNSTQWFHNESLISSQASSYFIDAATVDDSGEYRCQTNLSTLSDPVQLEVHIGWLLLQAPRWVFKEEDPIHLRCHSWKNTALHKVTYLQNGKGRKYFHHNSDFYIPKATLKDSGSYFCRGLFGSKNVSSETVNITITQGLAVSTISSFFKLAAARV

Binding result, binds:
B1, B2, B3, B4, B5

Molecular target: T1, soluble form of human CD16A (sCD16A)
Assay: in vitro, method not given
Excerpt: The same format was used to assay binding of sFcRs to immune complexes (IC) formed on the ELISA plate between ch4-4-20 and FITC-BSA.
After one hour, binding of the soluble receptor to the IC was detected using streptavidin-HRP conjugate and TMB development.

Binding result, binds:
B6
